The target of series [1] is T1, recombinant HMG1 binding to RAGE-Fc (Homo sapiens, UniProt P09429).
T1 construct: made in house; host or cells: E. coli (HMG1)
T1 sequence (P09429 1-215): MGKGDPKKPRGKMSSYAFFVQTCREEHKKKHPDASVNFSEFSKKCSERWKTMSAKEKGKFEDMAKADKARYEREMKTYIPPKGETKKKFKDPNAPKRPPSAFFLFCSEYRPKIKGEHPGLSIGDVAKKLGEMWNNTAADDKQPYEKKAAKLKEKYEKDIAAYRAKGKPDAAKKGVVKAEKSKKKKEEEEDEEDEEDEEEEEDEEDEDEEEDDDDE
In words: HMG1 binding to RAGE-Ig by ELISA. As to conditions: at the concentrations tested. The procedure: HMG1 binding to RAGE-Ig by ELISA: 50 μl/well of RAGE-Fc fusion protein at 5 μg/ml in PBS was added to each well of an ELISA plate and incubated overnight at 4° C. The plate was then blocked with 200 μl of 5% milk at 37° C. for 1 hr and washed 3× with PBS/Tween. 50 μl/well of diluted HMGB1 solution. For dose curves, HMGB1 concentrations started at 4 ug/ml in PBS. For antibody blocking the HMGB1 was preincubated in another plate with human anti-HMG1 antibodies or buffer, then transferred to the RAGE-coated plate. The plates were then incubated at room temperature for 2 hours and washed 3×. To detect any HMG1 bound to the immobilized RAGE-Fc a mixture of biotinylated mouse anti-HMG1 mAbs (10D4, 4H11, 3E10 and 5C12) each at 1 ug/ml, total Ab: 4 ug/ml, were added to each well and the plate was incubated for 1 hour at room temperature. The plate was then washed and Strepavidin-HPR was added to each well and incubated 15 min. The plate was then washed 3× and blotted dry. 100 μl of TMB developing agent was added and the plate read at 650 nm. Values were calculated as percent of inhibition with HMG1 alone equal to 0% inhibition. The data in FIG. 9 and summarized in Table 1 represent the average of two separate experiments.
A general note: An ELISA detects its analyte on a solid surface through an enzyme-linked reagent.

Series [2] is described as follows: Differential scanning calorimetry. The class given is physicochemical. On the set-up: unit: °C. The note with it: in °C (unit assumed). The procedure: Differential Scanning Calorimetry: Thermal melting temperatures (Tm) were measured with a VP-DSC (MicroCal, LLC) using a scan rate of 1.0° C./min and a temperature range of 25-120° C. A filter period of 8 seconds was used along with a 5 minute pre-scan thermostating. Samples were prepared by dialysis into 25 mM Histidine-HCl, pH 6 using Pierce dialysis cups (3.5 kD). Average Mab concentrations were 50 μg/mL as determined by A280. Melting temperatures were determined following manufacturer procedures using Origin software supplied with the system. Briefly, multiple baselines were run with buffer in both the sample and reference cell to establish thermal equilibrium. After the baseline was subtracted from the sample thermogram, the data were concentration normalized and fitted using the deconvolution function.

The nature of series [3]: Isoelectric focusing gel electrophoresis. The class given is physicochemical. The procedure: Isoelectric Focusing Gel Electrophoresis: Isoelectric points were determined using a Pharmacia Biotech Multiphor 2 electrophoresis system with a multi temp 3 refrigerated bath recirculation unit and an EPS 3501 XL power supply. Pre-cast ampholine gels (Amersham Biosciences, pI range 2.5-10) were loaded with 5 μg of protein. Broad range pI marker standards (Amersham, pI range 3-10, 8 μL) were used to determine relative pI for the Mabs. Electrophoresis was performed at 1500 V, 50 mA for 105 minutes. The gel was fixed using a Sigma fixing solution (5×) diluted with purified water to 1×. Staining was performed overnight at room temperature using Simply Blue stain (Invitrogen). Destaining was carried out with a solution that consisted of 25% ethanol, 8% acetic acid and 67% purified water. Isoelectric points were determined using a Bio-Rad Densitometer relative to calibration curves of the standards.

Series [4] concerns HMG1 (recombinant, native; immobilized, soluble). Nature of the series: Direct and sandwich (capture) ELISA comparing forms of HMG1. The class given is binding. The note with it: two ELISA formats, rHMG1. The procedure:
Direct ELISA (immobilized HMG1): Individual wells of a 96-well immunoplate (EIA/RIA plate, High binding, Costar) were coated with HMGB-1 at 5 μg/ml in PBS at 4° C. overnight. The plate was then blocked with 4% milk powder dissolved in PBS at 37° C. for 1 hour. The blocking solution was removed and replaced with human anti-HMG1 antibodies at various concentrations (see FIG. 4A). The plate was then washed (ELX-405 Plate washer, BIO-TEK) and secondary antibody (anti-human IgG-HRP, PIERCE) was added at a final concentration of 1:125,000 at 37° C. for 1 hour. HRP activity was detected with Sureblue HRP substrate (KPL). Plates were read at 450 nm using a Kinetic Microplate Reader (Molecular Devices).
Sandwich ELISA (soluble HMG1): Immunoplates (EIA/RIA plate, High binding, Costar) were coated with anti human IgG Fc at 10 μg/ml in PBS (pH 7.2) and incubated at 4° C. overnight. The coating reagent was removed and the plates were rinsed briefly with PBS. The plates were then blocked with 4% milk for 1 hour at 37° C. and rinsed with PBS. The anti-HMG1 antibodies were diluted in 4% milk. For serial dilutions, the antibodies were used at a starting concentration of 20 μg/ml. The diluted anti-HMG1 antibodies were then added into plate and incubated for 1 hr at 37° C. The plate was then washed 10 times with PBST (PBS/0.1% tween 20) and incubate with antigen (HMGB1, 2 μg/ml; or 0.7 μg/ml for native HMGB1) in 4% milk and incubated at 37° C. for 1 h. The plate was then wash 10 times and incubated with mouse anti-HMGB1, 1 μg/ml in 4% milk at 37° C. for 1 h. The plate was washed 10 times and incubated with anti-mouse IgG-HRP at 1:1000 at 37° C. for 1 h. The plate was then washed and developed. HRP activity was detected with Sureblue HRP substrate (KPL). Plates were read at 450 nm using a Kinetic Microplate Reader (Molecular Devices).

For the next series, the target named is T2, HMG2 (Bos taurus, UniProt P40673).
T2 construct: from tissue; host or cells: calf thymus (as read from the sentence)
T2 sequence (P40673 1-209): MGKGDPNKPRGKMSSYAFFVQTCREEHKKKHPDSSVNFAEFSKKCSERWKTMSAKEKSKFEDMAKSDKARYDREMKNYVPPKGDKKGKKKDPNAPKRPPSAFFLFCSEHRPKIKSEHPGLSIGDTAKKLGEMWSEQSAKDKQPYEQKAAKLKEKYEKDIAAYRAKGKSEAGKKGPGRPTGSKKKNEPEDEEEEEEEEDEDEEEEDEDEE
In words: Binding to HMG1 vs. HMG2 ELISA. As to conditions: immobilized antigen. On the set-up: species or system calf. As to the method: Binding to HMG1 vs. HMG2: Ultra high-binding ELISA plates (ThermoLab systems, #3855) were coated with either 5 ug/mL of Calf thymus HMGB1 or HMBG2 diluted in 10 mM Phosphate buffered saline (PBS), pH 7.2 and incubate overnight at 4 degrees. The plates were washed twice with Ca and Mg free PBS and 100 microliters of anti-HMGB1 antibody diluted in 10 mM PBS, pH 7.2+1% bovine serum albumin (BSA) to a final concentration of 10 ug/mL was added to each well and the plates were incubated 1 hour at room temperature. The wells were washed three times with 100 μl of PBS, pH 7.2. HRP labeled goat-anti-human IgG Kappa-chain (KPL, #14-10-10) and goat-anti-human IgG Lambda-chain (KPL, #14-10-11) were diluted in 10 mM PBS+1% BSA 1:1000 and 100 μl were added to each well and incubated for 1 hour at room temperature. The wells were then washed three times with 100 μl of PBS, pH 7.2. OPD substrate (Pierce chemical company, #34006) was prepared following the manufacturers instructions and 100 μl of prepared substrate was added to each well and the plates incubated at room temperature in the dark for 20-30 minutes. The reaction was stopped with the addition of 100 μl of 2M H2SO4, and the plates read on a plate reader at a wavelength of 490 nm.

“Also recorded” adds a separate entry of the source.

B1: G12: human anti-HMG1 antibody; VL/VH aa SEQ ID NO: 38/40 (antibody, listed as Homo sapiens, V domains shown)
VH: EVQLLESGGGLVQPGGSLRLSCAASGFTFSYYMMTWVRQAPGKGLEWVSSISPSGGYTIYADSAKGRFTISRDNSKNTLYLQMNSLRAEDTAVYYCARALSTGSFWDYWGQGTLVTVSS
VL: AQDIQMTQSPGTLSLSPGERATLSCRASESLTSTYVAWYQHKPGQAPRLLIHGGSTRATGIPVRFSGSGSGTDFTLTIATLEPEDFAVYYCQQYGSSPYTFGQGTKLEIK
B1: in series [1], the “block of recombinant HMG1 binding to RAGE” value (from here on “block”) is listed as “did not inhibit RAGE binding; also recorded: do not at the concentrations tested”. The Tm in series [2] is listed as 78.8. The molecule further registered a PI in series [3] of 8.6. In addition, in series [4], the “binding to immobilized versus soluble HMG1” value was “little difference in binding to immobilized or soluble HMG1”. Moreover, the “relative binding to HMG1 and HMG2” value with HMG2 was “specific for HMG1”.

B2: S14: human anti-HMG1 antibody; VL/VH aa SEQ ID NO: 66/68 (antibody, listed as Homo sapiens, V domains shown)
VH: EVQLLESGGGLVQPGGSLRLSCAASGFTFSWYETGWVRQAPGKGLEWVSGISPSGGYTQYADSVKGRFTISRDNSKNTLYLQMNSLRAEDTAVYYCARSGVGATKIFDYWGQGTLVTVSS
VL: AQDIQMTQSPSSLSASVGDRVTIICRANERINTYLNWYQQKPGKAPKLLISGTSSLESGVPSRFSGSGSGTEFTLSISSLQPEDFASYYCQQSYSSPYTFGQGTNLEIR
B2: the “block” value in series [1] is “did not inhibit RAGE binding; also recorded: do not at the concentrations tested”. In addition, the Tm in series [2] is recorded as 70.7. This molecule also returned a PI in series [3] of 8.62. Besides, the “relative binding to HMG1 and HMG2” value with HMG2 was “specific for HMG1”.

B3: G16: human anti-HMG1 antibody; VL/VH aa SEQ ID NO: 42/44 (antibody, listed as Homo sapiens, V domains shown)
VH: EVQLLESGGGLVQPGGSLRLSCAASGFTFSWYKMTWVRQAPGKGLEWVSSISPSGGFTSYADSVKGRFTISRDNSKNTLYLQMNSLRAEDTAVYYCARDLDIRHAFDIWGQGTMVTVSS
VL: AQDIQMTQSPGTLSLSPGESGTLSCRASESVSSRHFAWYQQKPGQAPRLLIYGASSRPTGIPDRFSGSGSGTDFTLTLSRLEPEDFAVYFCQYYGSSPYTFGGGTKVEMK
As for B3, in series [1], the “block” value was “did not inhibit RAGE binding; also recorded: do not at the concentrations tested”. In series [4], the “binding to immobilized versus soluble HMG1” value is “bound slightly better to immobilized rHMG1”.

B4: G35: human anti-HMG1 antibody; VL/VH aa SEQ ID NO: 54/56 (antibody, listed as Homo sapiens, V domains shown)
VH: EVQLLESGGGLVQPGGSLRLSCAASGFTFSWYKMVWVRQAPGKGLEWVSSIVPSGGITIYADSVKGRFTISRDNSKNTLYLQMNSLRAEDTAVYYCARVQQWLGRPYFDYWGQGTLVTVSS
VL: AQDIQMTQSPLSLPVTPGEPASISCRSSQSLLHGNGYNYLDWYLQRPGQSPQLLIYSGSNRASGVPDRFSGSGSGTDFTLKISRVEAEDVGVYYCMQSLQSRTFGQGTKVEIK
Take B4: the Tm in series [2] was 69. This molecule registered a PI in series [3] of 8.61. Also, the “relative binding to HMG1 and HMG2” value with HMG2 was “specific for HMG1”.

B5: G34: human anti-HMG1 antibody; VL/VH aa SEQ ID NO: 50/52 (antibody, listed as Homo sapiens, V domains shown)
VH: EVQLLESGGGLVQPGGSLRLSCAASGFTFSHYMMGWVRQAPGKGLEWVSRISPSGGGTVYADSVKGRFTISRDNSKNTLYLQMNSLRAEDTAVYYCARGGNWNYISYYYYYLDVWGKGTTVTVSS
VL: AQDIQMTQSPSSLSASVGDRVAITCRASQSIDTYLNWYQQKPGKAPKLLIYAASKLEDGVPSRFSGSGTGTDFTLTIRSLQPEDFASYFCQQSYSSPGITFGPGTKVEIK
On to B5, for which, in series [1], the “block” value is “do not at the concentrations tested”. Further, the Tm in series [2] is listed as roughly 75. The molecule also yielded a PI in series [3] of roughly 8.7. Besides, in series [4], the “binding to immobilized versus soluble HMG1” value was “bind better to soluble rHMG1”. The “relative binding to HMG1 and HMG2” value in the series with HMG2 is reported as “specific for HMG1”.

The values above are taken from patent US20080311122A1, “Antagonists of Hmgb1 and/or Rage and Methods of Use Thereof” (Medimmune, LLC, priority 2005, published 2008).
